Assay results: patent US20010034326A1 (UNIVERSITY OF NEW MEXICO, published 2001)
Like-named read-outs stand apart in the source and are kept apart here. Bridge positions count the residues as written; N and C are the ends. Ends that are not written are not given here.

Columns and labels:
[1] = biological target: T1, ICAM-1 expressed on cells (JY cells; stimulated endothelial cells) (UniProt P05362 28-532, limits assumed); experiment: cell-based or functional assay
[2] = biological target: T1, ICAM-1 expressed on cells (JY cells; …); experiment: cell-based or functional assay; remark: listed apart in the source
[3] = biological target: T1, ICAM-1 expressed on cells (JY cells; …); experiment: cell-based or functional assay; remark: listed apart in the source
[4] = biological target: T2, ICAM-1 (intracellular adhesion molecule 1), as used in the ELISA of monovalent ICAM-1 binding (human, UniProt P05362 28-480, limits assumed); experiment: ELISA of monovalent ICAM-1 binding; for example inhibition of 84H10 binding to ICAM-1
T2 construct: also called purified ICAM-1
T2 sequence (P05362 28-480 limits assumed): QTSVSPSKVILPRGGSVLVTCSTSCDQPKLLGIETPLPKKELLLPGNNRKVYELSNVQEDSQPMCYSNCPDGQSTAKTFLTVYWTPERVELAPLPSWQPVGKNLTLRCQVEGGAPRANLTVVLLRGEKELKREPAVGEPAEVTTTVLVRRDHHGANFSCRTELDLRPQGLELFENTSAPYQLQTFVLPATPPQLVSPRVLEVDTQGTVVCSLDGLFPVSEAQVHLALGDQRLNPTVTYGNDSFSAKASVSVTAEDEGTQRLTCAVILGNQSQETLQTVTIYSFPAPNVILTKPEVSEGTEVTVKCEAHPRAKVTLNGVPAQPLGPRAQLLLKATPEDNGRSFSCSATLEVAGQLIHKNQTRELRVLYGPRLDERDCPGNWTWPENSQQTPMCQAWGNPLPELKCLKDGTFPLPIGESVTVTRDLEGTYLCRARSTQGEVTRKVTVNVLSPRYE

[5] = biological target: T1, ICAM-1 expressed on cells (JY cells; …); experiment: cell-based or functional assay; remark: listed apart in the source

T1 sequence (P05362 28-532 limits assumed): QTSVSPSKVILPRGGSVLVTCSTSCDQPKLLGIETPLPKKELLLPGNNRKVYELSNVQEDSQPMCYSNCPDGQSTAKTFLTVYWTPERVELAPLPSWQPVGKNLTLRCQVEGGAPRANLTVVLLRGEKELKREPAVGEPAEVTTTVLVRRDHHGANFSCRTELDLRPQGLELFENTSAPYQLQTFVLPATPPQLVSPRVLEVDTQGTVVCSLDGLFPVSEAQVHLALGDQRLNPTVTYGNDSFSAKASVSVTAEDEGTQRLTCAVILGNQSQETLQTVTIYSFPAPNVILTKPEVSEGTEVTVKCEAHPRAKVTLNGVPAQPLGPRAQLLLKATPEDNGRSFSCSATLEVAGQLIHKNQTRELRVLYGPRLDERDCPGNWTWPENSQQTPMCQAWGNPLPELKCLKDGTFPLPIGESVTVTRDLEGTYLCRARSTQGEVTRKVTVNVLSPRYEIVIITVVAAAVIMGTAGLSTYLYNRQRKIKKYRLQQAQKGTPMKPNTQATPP

Row | Binder | Percent Inhibition [1] [percent] | Percent JY Aggregation [1] [percent] | Percent Inhibition [2] [percent] | Percent JY Aggregation [2] [percent] | other results
1 | CLLRMASIC (disulfide 1-9) [CLLRMASIC (SEQ ID NO: 38), cyclic disulfide-linked peptide] | 11 | 68 | – | – | –
2 | CVLRMRSAC (disulfide 1-9) [CVLRMRSAC (SEQ ID NO: 42), cyclic disulfide-linked peptide] | – | – | 56 | 24 | –
3 | CLLKMRSAC (disulfide 1-9) [CLLKMRSAC (SEQ ID NO: 45), cyclic disulfide-linked peptide] | – | – | 94 | 3 | –
4 | CLRLSRIMC (disulfide 1-9) [randomized cyclic peptide CLRLSRIMC (SEQ ID NO: 56)] | 4 | 74 | -3.6 | 57 | Cells/mm^2, firm attachment of neutrophils to stimulated endothelial cells in a parallel plate flow chamber [3]: 617 cells/mm^2; Percent Inhibition of firm attachment of neutrophils to stimulated endothelial cells [3]: 25 percent
5 | CILRMRSAC (disulfide 1-9) [CILRMRSAC (SEQ ID NO: 43), cyclic disulfide-linked peptide] | – | – | 92 | 4 | –
6 | CALRMRSIC (disulfide 1-9) [CALRMRSIC (SEQ ID NO: 34), cyclic disulfide-linked peptide] | 7 | 71 | – | – | –
7 | CLLRMKSAC (disulfide 1-9) [CLLRMKSAC (SEQ ID NO: 46), cyclic disulfide-linked peptide] | – | – | 90 | 6 | Cells/mm^2, firm attachment of neutrophils to stimulated endothelial cells in a parallel plate flow chamber [3]: 283 cells/mm^2; Percent Inhibition of firm attachment of neutrophils to stimulated endothelial cells [3]: 66 percent
8 | CLARMRSIC (disulfide 1-9) [CLARMRSIC (SEQ ID NO: 35), cyclic disulfide-linked peptide] | 9 | 69 | – | – | –
9 | CLIRMRSAC (disulfide 1-9) [CLIRMRSAC (SEQ ID NO: 44), cyclic disulfide-linked peptide] | – | – | 93 | 4 | –
10 | CLLRMRSLC (disulfide 1-9) [CLLRMRSLC (SEQ ID NO: 47), cyclic disulfide-linked peptide] | – | – | -12 | 61 | –
11 | CLLRARSIC (disulfide 1-9) [CLLRARSIC (SEQ ID NO: 37), cyclic disulfide-linked peptide] | 5 | 72 | – | – | –
12 | CLLRMRAIC (disulfide 1-9) [CLLRMRAIC (SEQ ID NO: 39), cyclic disulfide-linked peptide] | 27 | 56 | – | – | –
13 | CLLRMRSVC (disulfide 1-9) [CLLRMRSVC (SEQ ID NO: 48), cyclic disulfide-linked peptide] | – | – | 92 | 4 | –
14 | CLLRMRSIC (disulfide 1-9, Synthesized by Biopeptide; consensus derived from phage display on ICAM-1) [consensus peptide CLLRMRSIC (SEQ ID NO: 1), cyclized in the disulfide-linked form] | 46 | 41 | 45 | 30 | IC50 [4]: 0.25 µM; IC50, inhibition of JY cell aggregation [5]: 500 µM; IC50 for cell aggregation [5]: 800 µM; Cells/mm^2, firm attachment of neutrophils to stimulated endothelial cells in a parallel plate flow chamber [3]: 439 cells/mm^2; Percent Inhibition of firm attachment of neutrophils to stimulated endothelial cells [3]: 47 percent
15 | CLVRMRSAC (disulfide 1-9) [CLVRMRSAC (SEQ ID NO: 41), cyclic disulfide-linked peptide] | – | – | 0 | 55 | –
16 | CLLRMRSAC (disulfide 1-9) [CLLRMRSAC (SEQ ID NO: 40), cyclic disulfide-linked peptide] | 61 | 29 | – | – | –
